Source: the Human Domainome abundance scans (Beltran et al. 2025)
± gives the uncertainty stated by the source.

B1: Membrane-associated guanylate kinase, WW and PDZ domain-containing protein 3, residues 287 to 329; numbered along this chain, Q5TCQ9 (parent)
chain: MRDETLEPLPKNWEMAYTDTGMIYFIDHNTKTTTWLDPRLCKK
B2: Zinc finger homeobox protein 3, residues 2643 to 2698; numbered along this chain, Q15911 (parent)
chain: RLRTTITPEQLEILYQKYLLDSNPTRKMLDHIAHEVGLKKRVVQVWFQNTRARERK

Variants of: B1
Test: abundance fitness (aPCA) (normalised: wild type 0, dead -1); higher = more abundant; growth selection in yeast, the domain comes from the species named
Settings: Homo sapiens

Variant	abundance fitness
P38M	-0.83 ± 0.066
P38W	-0.963 ± 0.048
P38K	-0.994 ± 0.077
P38C	-1.12 ± 0.12
P38A	-0.899 ± 0.046
P38T	-0.897 ± 0.068
P38N	-1.04 ± 0.1
P38F	-0.95 ± 0.13
P38R	-0.954 ± 0.041
P38Y	-1.17 ± 0.39
P38D	-0.854 ± 0.064
P38E	-1.02 ± 0.062
P38G	-0.902 ± 0.033
P38H	-0.806 ± 0.068
C41F	-0.044 ± 0.095
C41G	-0.004 ± 0.029
C41E	0.038 ± 0.044
C41D	-0.006 ± 0.039
C41T	0.01 ± 0.046
C41S	0.034 ± 0.041
C41P	0.043 ± 0.041
C41Y	-0.005 ± 0.055

Variant	abundance fitness
C41Q	0.04 ± 0.037
C41K	-0.015 ± 0.04
C41A	0.058 ± 0.028
C41R	-0.021 ± 0.029
C41H	0.051 ± 0.081
C41V	0.02 ± 0.03
C41W	0.007 ± 0.033
C41L	-0.013 ± 0.033
C41I	0.059 ± 0.1
D37I	-1.04 ± 0.2
D37S	-0.188 ± 0.032
D37H	-0.166 ± 0.052
D37N	-0.235 ± 0.049
D37V	-0.926 ± 0.043
D37Y	-0.731 ± 0.11
D37K	-0.407 ± 0.075
D37G	-0.557 ± 0.032
D37P	-0.168 ± 0.037
D37W	-0.616 ± 0.061
D37R	-0.263 ± 0.029
D37M	-1.02 ± 0.1
D37Q	-0.486 ± 0.048

Variant	abundance fitness
K42L	-0.086 ± 0.032
K42H	-0.081 ± 0.045
K42C	-0.146 ± 0.062
K42E	0.056 ± 0.044
K42A	0.018 ± 0.027
K42M	-0.1 ± 0.047
K42I	-0.097 ± 0.07
K42V	-0.099 ± 0.033
K42T	-0.029 ± 0.039
K42Q	-0.056 ± 0.04
K42R	-0.038 ± 0.033
K42F	-0.242 ± 0.048
K42D	0.002 ± 0.04
K42S	-0.063 ± 0.035
K42P	-0.094 ± 0.046
K42Y	-0.223 ± 0.06
K42G	-0.014 ± 0.029
K42W	-0.115 ± 0.042
K42N	-0.168 ± 0.15
L40D	-0.039 ± 0.045
L40N	0.041 ± 0.071
L40P	-0.118 ± 0.047

Variant	abundance fitness
L40K	0.016 ± 0.04
L40A	-0.019 ± 0.038
L40M	-0.069 ± 0.038
L40Q	-0.014 ± 0.037
L40S	-0.053 ± 0.033
L40R	-0.02 ± 0.03
L40C	-0.033 ± 0.035
L40T	-0.085 ± 0.064
L40V	0 ± 0.034
L40I	-0.102 ± 0.081
L40Y	-0.193 ± 0.065
L40G	-0.028 ± 0.027
L40E	0.022 ± 0.037
R39G	-0.314 ± 0.029
R39D	-0.317 ± 0.044
R39P	-0.516 ± 0.035
R39A	-0.233 ± 0.04
R39E	-0.244 ± 0.038
R39L	-0.349 ± 0.038
R39N	-0.476 ± 0.17
R39T	-0.22 ± 0.047
R39Q	-0.417 ± 0.045

Variant	abundance fitness
R39V	-0.301 ± 0.032
R39I	-0.332 ± 0.075
R39C	-0.322 ± 0.041
R39M	-0.33 ± 0.034
R39K	-0.309 ± 0.061
R39F	-0.635 ± 0.11
R39S	-0.259 ± 0.042
K43C	-0.065 ± 0.045
K43S	0.002 ± 0.04
K43W	-0.044 ± 0.047
K43H	-0.036 ± 0.05
K43P	0.042 ± 0.046
K43Q	0.136 ± 0.15
K43G	0.03 ± 0.043
K43L	-0.011 ± 0.11
K43E	0.031 ± 0.07
K43N	-0.062 ± 0.076
K43I	-0.144 ± 0.047
K43A	0.011 ± 0.072
K43V	-0.045 ± 0.065

Variants of: B2
Test: as above
Settings: Homo sapiens

Variant	abundance fitness
R53N	0.172 ± 0.15
R53V	0.013 ± 0.076
R53T	0.029 ± 0.11
R3P	-0.081 ± 0.15
R3E	0.366 ± 0.1
R3A	0.493 ± 0.083
R3Y	0.006 ± 0.17
T50G	-0.549 ± 0.073
T50L	-0.177 ± 0.09
T50D	-0.731 ± 0.15
N49F	-0.531 ± 0.18
N49R	-0.267 ± 0.082
N49M	-0.331 ± 0.15
R55M	0.483 ± 0.21
R55K	0.496 ± 0.27
R55E	0.255 ± 0.13
R55A	0.239 ± 0.086
R55F	0.004 ± 0.18
I13F	0.119 ± 0.14
I13K	-0.096 ± 0.12
I13L	-0.084 ± 0.085
I13N	-0.287 ± 0.16
I13Y	0.012 ± 0.14
R51E	-0.163 ± 0.1
R51K	0.112 ± 0.11
W46H	-0.897 ± 0.31

Variant	abundance fitness
W46T	-0.865 ± 0.22
W46Q	-0.829 ± 0.16
W46I	-1.03 ± 0.38
W46F	-0.462 ± 0.3
W46R	-0.678 ± 0.094
E54T	-0.361 ± 0.077
E54L	-0.2 ± 0.069
E54W	-0.512 ± 0.12
E54M	-0.177 ± 0.09
T5D	0.075 ± 0.14
T5C	-0.107 ± 0.14
T5N	-0.233 ± 0.19
T5H	-0.784 ± 0.31
N23S	-0.113 ± 0.11
N23I	-0.414 ± 0.23
N23L	-0.389 ± 0.12
N23P	-0.965 ± 0.22
L11F	-0.341 ± 0.14
L11G	-0.02 ± 0.072
P24R	-0.828 ± 0.082
P24E	-0.78 ± 0.14
P24M	-0.777 ± 0.16
P24D	-0.634 ± 0.13
Y18N	-0.705 ± 0.32
Y18Q	-0.698 ± 0.2
Y18M	-0.373 ± 0.14

Variant	abundance fitness
Y18D	-0.96 ± 0.17
I6K	-0.392 ± 0.1
I6V	-0.022 ± 0.08
I6A	-0.298 ± 0.087
I6T	-0.211 ± 0.081
I6R	-0.868 ± 0.1
I6Y	0.035 ± 0.081
D30H	0.007 ± 0.15
D30C	-0.486 ± 0.14
D30S	-0.108 ± 0.085
D30K	-0.214 ± 0.13
D30F	-0.446 ± 0.22
L19S	-0.154 ± 0.092
L19K	-0.022 ± 0.18
K56L	-0.527 ± 0.29
K56Q	0.032 ± 0.21
K56N	-0.07 ± 0.21
K56S	0.262 ± 0.14
K56A	0.034 ± 0.33
K56W	-0.314 ± 0.28
R1I	-0.063 ± 0.41
R1T	0.504 ± 0.29
Q44E	0.283 ± 0.098
Q44C	-0.193 ± 0.17
Q44H	-0.038 ± 0.15
Q44I	-0.286 ± 0.13

Variant	abundance fitness
Q44G	0.023 ± 0.091
Q44P	-0.723 ± 0.12
Q44D	0.481 ± 0.12
Q44A	0 ± 0.082
K27F	-0.293 ± 0.16
K27C	-0.342 ± 0.17
K27N	-0.246 ± 0.18
K27G	0.077 ± 0.074
K27M	-0.177 ± 0.11
K27E	0.243 ± 0.094
L29V	-0.043 ± 0.082
L29D	-0.805 ± 0.15
L29F	0.069 ± 0.12
L14R	-0.847 ± 0.089
L14Q	-0.895 ± 0.14
L14P	-0.879 ± 0.24
L14G	-0.956 ± 0.086
L14H	-0.793 ± 0.26
L14S	-0.763 ± 0.1
K17F	0.528 ± 0.31
K17G	-0.528 ± 0.083
V42I	-0.073 ± 0.12
V42G	-0.43 ± 0.081
V42D	0.226 ± 0.13
V42A	-0.123 ± 0.095
V42Y	-0.021 ± 0.15

Variant	abundance fitness
T25E	-0.081 ± 0.099
T25D	0.189 ± 0.11
T25F	-0.605 ± 0.23
T25K	-0.506 ± 0.15
T25Q	-0.505 ± 0.16
L20M	0.093 ± 0.11
L20Q	0.109 ± 0.1
L20R	-0.331 ± 0.077
S22Y	-0.624 ± 0.23
S22R	-0.526 ± 0.082
S22Q	0.037 ± 0.14
T4E	0.439 ± 0.14
T4F	-0.378 ± 0.24
T4M	0.068 ± 0.14
T4R	-0.576 ± 0.095
T4H	-0.337 ± 0.17
D21C	-0.426 ± 0.15
D21Y	-0.675 ± 0.22
D21P	-0.604 ± 0.15
D21M	-0.22 ± 0.14
A33C	-0.127 ± 0.1
A33T	-0.43 ± 0.08
V36T	0.053 ± 0.12
V36P	-1 ± 0.19
V36E	-1.11 ± 0.26
V36S	-0.134 ± 0.094

Variant	abundance fitness
K40D	0.006 ± 0.16
K40H	-0.049 ± 0.16
K40V	0.161 ± 0.079
K40A	0.144 ± 0.08
F47H	-1.09 ± 0.32
F47P	-1.04 ± 0.21
P8Q	-0.401 ± 0.21
P8R	0.196 ± 0.089
P8K	-0.352 ± 0.23
P8F	0.584 ± 0.2
R26W	0.401 ± 0.09
R26I	0.323 ± 0.13
R26C	0.306 ± 0.1
R26H	0.324 ± 0.16
R26Y	-0.031 ± 0.2
R26D	0.458 ± 0.13
R26K	0.123 ± 0.12
T7C	-0.244 ± 0.12
T7W	-0.719 ± 0.12
T7Y	-0.487 ± 0.26
E35C	-0.351 ± 0.12
E35V	-0.255 ± 0.092
Q10I	-0.27 ± 0.079
Q10R	-0.755 ± 0.083
Q10H	-0.356 ± 0.074
Q10Y	-0.792 ± 0.084

Variant	abundance fitness
Q10L	-0.646 ± 0.072
Q10N	-0.385 ± 0.08
H31M	0.073 ± 0.12
H31K	-0.166 ± 0.15
H31L	0.056 ± 0.095
H31N	0.315 ± 0.16
H31Q	0.169 ± 0.15
H31R	-0.237 ± 0.088
R41Q	0.287 ± 0.15
R41C	0.256 ± 0.12
R41V	0.041 ± 0.093
R41L	-0.001 ± 0.1
R41T	0.514 ± 0.15
Y15H	-0.152 ± 0.16
Y15S	0.138 ± 0.094
Y15W	0.072 ± 0.096
Y15Q	0.244 ± 0.1
Y15K	0.051 ± 0.12
K39R	-0.012 ± 0.074
K39V	-0.01 ± 0.092
K39D	0.189 ± 0.13
H34F	-0.114 ± 0.15
H34Y	-0.012 ± 0.12
H34A	-0.123 ± 0.11
H34D	0.035 ± 0.15
E12Y	-0.454 ± 0.15

Variant	abundance fitness
E12D	-0.109 ± 0.12
E12F	-0.282 ± 0.13
V43Y	-0.807 ± 0.22
V43D	-0.867 ± 0.15
V43P	-0.739 ± 0.14
V43H	-0.973 ± 0.23
V43L	-0.485 ± 0.097
V43G	-0.937 ± 0.11
V43E	-1.11 ± 0.14
L2T	0.25 ± 0.12
L2M	-0.221 ± 0.17
L2W	-0.134 ± 0.13
L2R	-0.262 ± 0.1
A52P	-0.598 ± 0.14
A52Q	0.21 ± 0.11
A52G	-0.037 ± 0.078
G37K	-0.007 ± 0.12
G37V	-0.812 ± 0.09
G37Y	-0.919 ± 0.16
Q16G	-0.113 ± 0.077
Q16H	-0.267 ± 0.19
Q16M	0.225 ± 0.11
Q16T	-0.021 ± 0.13
Q16R	-0.174 ± 0.082
Q16D	-0.246 ± 0.13
Q48T	0.028 ± 0.15

Variant	abundance fitness
Q48A	0.122 ± 0.12
Q48R	-0.204 ± 0.078
Q48V	-0.147 ± 0.1
I32E	-0.9 ± 0.13
I32P	-0.915 ± 0.13
I32D	-1.02 ± 0.18
I32Y	-0.378 ± 0.2
I32C	-0.749 ± 0.17
I32G	-0.77 ± 0.094
I32S	-0.735 ± 0.1
I32A	-0.886 ± 0.1
I32M	-0.466 ± 0.1
V45H	-0.001 ± 0.15
V45S	-0.359 ± 0.097
V45L	0.122 ± 0.084
E9R	-0.277 ± 0.077
E9L	-0.31 ± 0.069
E9S	-0.267 ± 0.071
